Assay results taken from paper PMC6362186, “Isolation and biochemical characterization of a metagenome-derived 3-deoxy-D-arabino-heptulosonate-7-phosphate synthase gene from subtropical marine mangrove wetland sediments” (AMB Express, 2019).

System: T1, C=C(OP(=O)(O)O)C(=O)O
T1 construct: His-tagged from pET-30a(+) HindIII/XhoI, tag removal not mentioned, ~37 kDa on SDS-PAGE; E. coli Rosetta (DE3), Ni resin; tetramer only by homology model
Experiment: purified protein
Assay type: biochemical, uncultured bacterium
Details: co-substrate D-erythrose 4-phosphate, optimal conditions pH 8.0, 40 °C, CoCl2 0.1 mM in standard assay, PEP range printed as 0.1–0.5 μM

Aro1A (uncultured bacterium)
Km: 19.58 µM
kcat: 17.3 s⁻¹
